According to paper PMC7501880:

Target: DIP-α^Nectin1 chimera (human | Drosophila) (UniProt Q15223)
Test: SPR

With “Dpr10^Nectin3 chimera (from UniProt Q9NQS3 58-167)” as the substance, how does the Kd read?
The Kd was less than 5 mM.
